How the values were obtained:
mice = assay: Toxicity of pHe marker in mice; format: in vivo, mouse; settings: 7 mmol/kg i.p.
PC-3 tumour = assay: Biodistribution/pHe modulation study; format: in vivo, mouse; settings: PC-3, 24 h p.i., bicarbonate per os 5 days; P=0.053; 95% CI 0%, 51%
LNCaP tumour = assay: Biodistribution/pHe modulation study; format: in vivo, mouse; settings: 24 h p.i., bicarbonate per os 5 days, P=0.020, 95% CI 10%, 42%
[1] = Radiochemical purity of the preparation over time; format: physicochemical; settings: measured ≈24 h p.i., preparation used for SPECT imaging
[2] = 60 min p.i., i.v., mean±SD of 2 independent studies
[3] = Biodistribution of 99mTc-AH114567 in tumoured mice

Compound | toxicity for mice (mice) | tumour uptake ratio (uptake difference with bicarbonate relative to standard) (PC-3 tumour) | tumour uptake ratio (uptake difference with bicarbonate relative to standard) (LNCaP tumour) | radiochemical purity (RCP) of the preparation [1] | integrated radio-HPLC signal of the parent compound in rat plasma [2] | lung/blood uptake ratio at 4 h p.i. ([3]; 4 h p.i.) | lung/blood uptake ratio at 24 h p.i. ([3]; 24 h p.i.) | kidney uptake at 24 h p.i. ([3]; 24 h p.i., C57BL/6 mice) | blood uptake at 24 h p.i. ([3]; 24 h p.i., all three models) | lung/blood uptake ratio, initial ([3]; initially) | uptake in liver ([3]; over the first 24 h p.i., liver+gall bladder, LLC tumoured C57BL/6 mice) | skin uptake ([3]; range over time points) | uptake in bone ([3]; typically)
CCOP(=O)(OCC)C1(C)CCCN1 (stereo not shown) | toxic | – | – | – | – | – | – | – | – | – | – | – | –
ACEQNPIY{WARYADWLFTTPLLLLDLALLV}DADEGTG [99mTc-AH114567] | – | 29% | 29% | ≥ 85% | 86±6% | ≈ 2 | ca. 1 | ~3 % ID | 1 to 2 % ID/g | ≈ 3 | 25 to 15 % ID | 3 to 8 % ID | 2 to 3 % ID

— paper PMC3909815 (Molecular imaging and biology : MIB : the official …, 2012)
